What was measured:
rFVIII [1] = target: T1, rFVIII (Homo sapiens, UniProt P00451); test: column format binding assay, rFVIII mass per fraction by sandwich capture ELISA for the light chain; details: for Flow through ng: 10,000 ng rFVIII in 1:10 PPF injected, 5° C.
Description: (§1) Immunoassay on rFVIII using a sandwich capture ELISA for the light chain and activity assay using a chromogenic substrate (COATEST Factor VIII kit from diaPharma, Franklin, Ohio) were performed on a BIOMEK® automated liquid handling system from Beckman Instruments (Brea, Calif.). The monoclonal antibody for rFVIII light chain (known as C7F7), the ELISA assay standard (lot A70K019), and the control for the activity assay (lot A70A001 @ 140 IU/mL) were from the Bayer Corporation (Berkeley, Calif.). The standard for the activity assay was at 11.2 IU/mL (Bayer, Clayton, N.C.), calibrated against the MEGA 1 standard, which is a working standard used by American manufacturers for measuring factor VIII activity (21).
(§2) Additional confirmatory binding assay and performance of the discovered binding peptides in terms of total rFVIII and activity recovery was performed in a column chromatographic format on a microbore HPLC. The resins were packed into 0.4×5 cm columns (Thomson, Springfield, Va.) and tested on the MICHROM HPLC system (Michrom BioResources, Auburn, Calif.). The elution program for the trials utilized the following method. The column was pre-equilibrated with equilibration buffer (as above). A 1 mL aliquot of 1:10 PPF followed by 1 mL of rFVIII (10,000 ng) in 1:10 PPF were injected and allowed sufficient time to flow through the column using equilibration buffer. The column was then washed with step elutions of 0.5 M and 1.0 M CaCl2 in equilibration buffer. The column was exposed to equilibration buffer. Remaining protein was eluted with 2% by volume glacial acetic acid in water. Columns were kept at 5° C. during the chromatographic runs. For each 1 mL injection (equilibration buffer, 1:10 PPF and 10,000 ng rFVIII in 1:10 PPF), the chromatographic cycle was run for 45 minutes (injection, flow through, 0.5 M CaCl2, 1.0 M CaCl2, equilibration buffer, 2% acetic acid, equilibration buffer).
(§3) A Gilson FC204 fraction collector at the HPLC outlet collected individual eluates for further analysis. Each collection tube had 100 μL hSA added to it to stabilize the rFVIII. Fractions collected from the 2% acetic acid eluates were neutralized with 2 M Tris, pH 10.5 to bring the pH to neutrality. The fractions were analyzed for total protein by the integration of the absorbance at 280 nm, for rFVIII by immunoassay (sandwich capture ELISA), and for rFVIII activity by a chromogenic substrate assay.
Tables 5 and 6 present the results from the additional confirmatory binding assays using the column format. The chromatography method was run by injecting the samples at a flow rate of 865 μL/min (413 cm/hr). In order to provide a 10 minute residence time of sample in the column the flow was decreased to 17 μL/min (10 cm/hr) upon injection.
Following the incubation, the flow was set at 865 μL/min (413 cm/hr) for the step clutions of 0.5 M CaCl2, 1.0 M CaCl2, and 2% acetic acid. Results are expressed in terms of the total mass of rFVIII in each fraction, as determined by the sandwich capture ELISA assay for the rFVIII light chain. […] A control using a non-binding peptide sequence (IGF) is also shown for comparison--in this case, 95% of the rFVIII loaded to the column was collected in the flow through fraction. Additional controls with no

rFVIII [2] = target: T1, rFVIII; test: confirmatory binding assay in filtration plate format using 14C-rFVIII; details: for 0.5M CaCl2 % total / 2% acetic acid % total / 2% acetic acid dpm / 0.5M CaCl2 dpm: 5 mg beads; for 0.5M CaCl2 dpm: 5° C.; for beads % total / beads dpm: remaining on beads after washes
Description: Confirmatory binding assays were performed in a filtration plate format using individual peptide sequences synthesized directly onto the TOYOPEARL AF amino 650 M resin, at a final substitution density of 0.1 mmole/g resin. A slurry of each individual peptide sequence was prepared using deionized water. A 100 μL volume of beads (corresponding to 5 mg) was loaded into each well of the filtration plate (MULTISCREEN Assay System, Millipore, Bedford, Mass.), in triplicate for each peptide sequence. Beads were washed with 20% ethanol and incubated overnight with equilibration buffer (20 mM imidazole, 10 mM
CaCl2, 0.105 M NaCl, pH 6.9). A 100 μL aliquot of ^14 C-rFVIII diluted in neat PPF to a final concentration of 20-30 nM was loaded into each well and incubated for 1 hour at 5° C. Filtrate (unbound ^14 C-rFVIII) was collected into a microtiter plate and transferred to liquid scintillation vials for dpm counting. Beads were washed sequentially with: 100 μL of equilibration buffer for 15 minutes, 200 μL of 0.5 M CaCl2 (in equilibration buffer), 200 μL of 1.0 M CaCl2 (in equilibration buffer), and 200 uL of 2% by volume glacial acetic acid in water, for 1 hour each at 5° C. Scintillation counting on the unbound ^14 C-rFVIII (plus equilibration buffer wash), salt and acid washes, as well as on the beads was then performed and the overall mass balance calculated.
Beads presenting the appropriate peptide sequence on the surface were placed in the filtration plate wells and incubated sequentially with equilibration buffer, ^14 C-rFVIII in PPF, equilibration buffer, 0.5 M CaCl2 wash, 1.0 M CaCl2 wash and 2% acetic acid wash. After each incubation, filtrate was collected in microtiter plates, and dpm counted on each
In Table 3, the ^14 C-rFVIII was loaded at 20 nM (in PPF) and the radiolabeling yield was at 3.0×10^15 dpm/mole. In Table 4, the ^14 C-rFVIII was loaded at 30 nM (in PPF) and the radiolabeling yield was at 5.0×10^15 dpm/mole.

rFVIII [3] = target: T1, rFVIII; test: rFVIII activity recovery from peptide columns by chromogenic substrate assay (COATEST); type: biochemical; details: for 0.5M CaCl2 IU / 2% acetic acid % total / 2% acetic acid IU / Flow through % total / Total IU / 0.5M CaCl2 % total / Flow through IU: Table 8; for 0.5M CaCl2 % total: activity recovery; for Flow through IU: rFVIII activity in fraction
Description: as §1, §2, §3
Tables 7 and 8 list the sequences for which activity recovery was determined by a chromogenic substrate assay (COASTEST kit, diaPharma, Franklin, Ohio). Chromatographc conditions are the same as described above for the results from Tables 5 and 6. It can be

[4] = Table 3, 14C-rFVIII 20 nM in PPF
[5] = Table 3, 14C-rFVIII 20 nM in PPF, 3.0 × 10^15 DPM/mole
[6] = Table 4, 14C-rFVIII 30 nM in PPF
[7] = Table 4, 14C-rFVIII 30 nM in PPF, 5.0 × 10^15 dpm/mole

T1 sequence (P00451 20-2351): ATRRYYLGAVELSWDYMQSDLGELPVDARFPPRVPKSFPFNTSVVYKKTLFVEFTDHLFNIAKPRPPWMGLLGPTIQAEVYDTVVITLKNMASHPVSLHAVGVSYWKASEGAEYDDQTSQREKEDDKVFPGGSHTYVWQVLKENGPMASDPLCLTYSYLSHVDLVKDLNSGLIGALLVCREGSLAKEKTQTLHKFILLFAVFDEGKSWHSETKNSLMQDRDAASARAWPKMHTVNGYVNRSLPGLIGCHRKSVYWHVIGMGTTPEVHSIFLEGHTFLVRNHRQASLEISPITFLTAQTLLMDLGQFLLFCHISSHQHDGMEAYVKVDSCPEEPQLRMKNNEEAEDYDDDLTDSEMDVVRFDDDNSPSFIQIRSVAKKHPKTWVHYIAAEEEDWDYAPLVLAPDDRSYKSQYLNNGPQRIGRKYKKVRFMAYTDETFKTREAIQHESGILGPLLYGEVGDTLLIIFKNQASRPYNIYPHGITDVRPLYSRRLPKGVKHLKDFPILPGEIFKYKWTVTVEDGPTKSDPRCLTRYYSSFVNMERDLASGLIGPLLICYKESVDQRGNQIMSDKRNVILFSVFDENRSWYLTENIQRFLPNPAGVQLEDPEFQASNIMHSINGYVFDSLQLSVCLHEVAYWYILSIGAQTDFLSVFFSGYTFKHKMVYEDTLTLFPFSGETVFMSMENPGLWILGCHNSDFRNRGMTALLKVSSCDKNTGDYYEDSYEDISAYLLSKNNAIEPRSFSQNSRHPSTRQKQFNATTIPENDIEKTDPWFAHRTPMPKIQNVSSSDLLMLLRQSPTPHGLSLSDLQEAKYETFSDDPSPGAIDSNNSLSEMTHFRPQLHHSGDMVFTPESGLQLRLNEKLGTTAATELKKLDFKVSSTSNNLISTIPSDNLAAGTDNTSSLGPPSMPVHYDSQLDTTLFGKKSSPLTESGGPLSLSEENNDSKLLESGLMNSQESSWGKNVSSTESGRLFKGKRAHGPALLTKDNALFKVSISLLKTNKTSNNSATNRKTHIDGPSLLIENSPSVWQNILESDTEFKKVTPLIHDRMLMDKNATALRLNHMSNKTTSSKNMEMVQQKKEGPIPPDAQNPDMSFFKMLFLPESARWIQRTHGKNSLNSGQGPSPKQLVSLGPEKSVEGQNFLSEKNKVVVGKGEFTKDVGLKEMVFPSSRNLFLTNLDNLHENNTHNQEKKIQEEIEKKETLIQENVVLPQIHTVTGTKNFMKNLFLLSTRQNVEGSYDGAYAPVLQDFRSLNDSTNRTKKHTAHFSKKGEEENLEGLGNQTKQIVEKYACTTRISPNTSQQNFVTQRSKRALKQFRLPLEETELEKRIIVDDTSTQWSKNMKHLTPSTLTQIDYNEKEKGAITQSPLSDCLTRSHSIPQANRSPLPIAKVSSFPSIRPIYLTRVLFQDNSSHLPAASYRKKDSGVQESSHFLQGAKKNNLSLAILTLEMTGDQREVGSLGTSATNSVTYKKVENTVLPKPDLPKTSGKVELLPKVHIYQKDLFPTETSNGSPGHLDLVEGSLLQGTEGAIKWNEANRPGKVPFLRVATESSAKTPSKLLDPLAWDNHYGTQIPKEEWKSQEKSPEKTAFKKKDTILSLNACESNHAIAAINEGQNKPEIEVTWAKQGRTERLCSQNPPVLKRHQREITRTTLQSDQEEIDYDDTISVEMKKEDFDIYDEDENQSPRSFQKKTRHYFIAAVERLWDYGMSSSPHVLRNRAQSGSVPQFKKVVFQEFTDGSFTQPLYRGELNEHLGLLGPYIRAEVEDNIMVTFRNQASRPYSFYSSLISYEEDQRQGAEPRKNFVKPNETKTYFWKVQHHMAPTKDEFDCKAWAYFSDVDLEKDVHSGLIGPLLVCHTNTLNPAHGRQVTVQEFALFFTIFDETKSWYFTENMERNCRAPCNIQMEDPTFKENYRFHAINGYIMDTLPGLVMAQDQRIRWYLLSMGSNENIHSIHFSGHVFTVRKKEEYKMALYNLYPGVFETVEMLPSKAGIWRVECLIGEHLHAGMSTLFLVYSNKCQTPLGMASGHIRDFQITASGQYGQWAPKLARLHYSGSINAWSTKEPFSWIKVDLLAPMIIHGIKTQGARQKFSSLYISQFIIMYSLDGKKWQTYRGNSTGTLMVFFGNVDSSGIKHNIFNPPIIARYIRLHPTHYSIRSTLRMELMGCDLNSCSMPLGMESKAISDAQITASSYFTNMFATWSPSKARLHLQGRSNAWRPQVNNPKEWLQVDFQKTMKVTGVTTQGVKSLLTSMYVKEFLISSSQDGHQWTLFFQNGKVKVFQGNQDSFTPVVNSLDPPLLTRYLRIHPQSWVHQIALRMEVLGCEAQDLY
T1 sequence (P00451 1668-2351 limits assumed): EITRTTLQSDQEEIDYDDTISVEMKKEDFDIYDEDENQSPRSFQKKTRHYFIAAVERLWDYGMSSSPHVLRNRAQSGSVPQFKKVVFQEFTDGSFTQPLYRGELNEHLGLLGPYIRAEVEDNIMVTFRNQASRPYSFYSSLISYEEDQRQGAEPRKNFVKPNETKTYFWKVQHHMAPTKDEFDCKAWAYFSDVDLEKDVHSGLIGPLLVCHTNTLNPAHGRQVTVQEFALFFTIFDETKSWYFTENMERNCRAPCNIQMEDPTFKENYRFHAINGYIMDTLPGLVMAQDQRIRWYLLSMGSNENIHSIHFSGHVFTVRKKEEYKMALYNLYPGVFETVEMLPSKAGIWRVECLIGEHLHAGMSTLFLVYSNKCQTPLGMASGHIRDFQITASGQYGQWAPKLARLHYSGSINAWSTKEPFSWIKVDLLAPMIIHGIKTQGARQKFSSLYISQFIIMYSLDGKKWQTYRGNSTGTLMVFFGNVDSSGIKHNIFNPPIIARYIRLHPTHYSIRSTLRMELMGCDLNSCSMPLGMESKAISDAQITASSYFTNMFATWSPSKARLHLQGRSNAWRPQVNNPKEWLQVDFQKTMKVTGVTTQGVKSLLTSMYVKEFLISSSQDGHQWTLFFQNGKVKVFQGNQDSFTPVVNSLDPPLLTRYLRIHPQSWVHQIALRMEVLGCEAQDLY

Row | 0.5M CaCl2 ng (rFVIII [1]; Table 5) | 0.5M CaCl2 % total (rFVIII [1]; Table 5) | 2% acetic acid % total (rFVIII [1]; Table 5) | 2% acetic acid ng (rFVIII [1]; Table 5) | Flow through % total (rFVIII [1]; Table 5) | Total ng (rFVIII [1]; Table 5) | Flow through ng (rFVIII [1]; Table 5) | Total dpm (rFVIII [2]; Table 3, 14C-rFVIII 20 nM) | 0.5M CaCl2 % total (rFVIII [2]; [4]) | 2% acetic acid % total (rFVIII [2]; [4]) | 2% acetic acid dpm (rFVIII [2]; [4]) | 0.5M CaCl2 dpm (rFVIII [2]; [5]) | beads % total (rFVIII [2]; Table 3, 14C-rFVIII 20 nM) | beads dpm (rFVIII [2]; Table 3, 14C-rFVIII 20 nM) | 0.5M CaCl2 ng (rFVIII [1]; Table 6) | 0.5M CaCl2 % total (rFVIII [1]; Table 6) | 2% acetic acid % total (rFVIII [1]; Table 6) | 2% acetic acid ng (rFVIII [1]; Table 6) | Flow through % total (rFVIII [1]; Table 6) | Total ng (rFVIII [1]; Table 6) | Substance | also measured
1 | 338 ng | 9% | 71% | 2550 ng | 2% | 3615 ng | 56 ng | 2897 dpm | 21% | 45% | 1302 dpm | 608 dpm | 34% | 986 dpm | – | – | – | – | – | – | 16 (WRRHRY) [compound 16] | –
2 | – | – | – | – | – | – | – | – | – | – | – | – | – | – | 4611 ng | 55% | 1% | 121 ng | 42% | 8427 ng | 15 (VYGVGG) [compound 15] | Flow through ng (rFVIII [1]; Table 6): 3572 ng; ELISA results % total (rFVIII [1]; Table 9, 0.5M CaCl2 fraction): 55%; Total dpm (rFVIII [2]; Table 4, 14C-rFVIII 30 nM): 2330 dpm; 0.5M CaCl2 % total (rFVIII [2]; [6]): 93%; 2% acetic acid % total (rFVIII [2]; [6]): 5%; 2% acetic acid dpm (rFVIII [2]; [6]): 115 dpm; 0.5M CaCl2 dpm (rFVIII [2]; [7]): 2162 dpm; beads % total (rFVIII [2]; Table 4, 14C-rFVIII 30 nM): 2%; beads dpm (rFVIII [2]; Table 4, 14C-rFVIII 30 nM): 53 dpm; 0.5M CaCl2 IU (rFVIII [3]): 27.2 IU; 2% acetic acid % total (rFVIII [3]): 0%; 2% acetic acid IU (rFVIII [3]): 0.08 IU; Flow through % total (rFVIII [3]): 38%; Total IU (rFVIII [3]): 45.4 IU; 0.5M CaCl2 % total (rFVIII [3]): 60%; Flow through IU (rFVIII [3]): 17.3 IU; Activity results % total (rFVIII [3]; Table 9, 0.5M CaCl2 fraction): 60%
3 | 1622 ng | 37% | 54% | 2336 ng | 3% | 4348 ng | 127 ng | 3009 dpm | 17% | 72% | 2156 dpm | 498 dpm | 12% | 355 dpm | – | – | – | – | – | – | 17 (FYRFWN) [compound 17] | –
4 | – | – | – | – | – | – | – | – | – | – | – | – | – | – | 1239 ng | 22% | 60% | 3284 ng | 0% | 5510 ng | 21 (HFQIFG) [compound 21] | Flow through ng (rFVIII [1]; Table 6): 0 ng; Total dpm (rFVIII [2]; Table 4, 14C-rFVIII 30 nM): 3484 dpm; 0.5M CaCl2 % total (rFVIII [2]; [6]): 21%; 2% acetic acid % total (rFVIII [2]; [6]): 63%; 2% acetic acid dpm (rFVIII [2]; [6]): 2208 dpm; 0.5M CaCl2 dpm (rFVIII [2]; [7]): 722 dpm; beads % total (rFVIII [2]; Table 4, 14C-rFVIII 30 nM): 16%; beads dpm (rFVIII [2]; Table 4, 14C-rFVIII 30 nM): 554 dpm; 0.5M CaCl2 IU (rFVIII [3]): 11.4 IU; 2% acetic acid % total (rFVIII [3]): 19%; 2% acetic acid IU (rFVIII [3]): 4.1 IU; Flow through % total (rFVIII [3]): 0%; Total IU (rFVIII [3]): 21.2 IU; 0.5M CaCl2 % total (rFVIII [3]): 53%; Flow through IU (rFVIII [3]): 0.0 IU
